Entries after “also recorded” stand apart in the source; their conditions may differ.

For series [1], the system named is U937 xenograft tumour. Nature of the series: Subcutaneous uPARAP-positive U937 xenograft tumour model, treatment by intravenous injection. It counts as in vivo, CB17 SCID mice. How it is done: (§1) All animal experiments were performed under legal approval from The Danish Veterinary and Food Administration. All reagents and cell lines used for animal experiments were tested negative for the presence of murine viruses, bacteria, mycoplasma and fungi. Animals received standard of care, and were sacrificed upon any of the following signs: loss of more than 10% of body weight, visible distress or illness, compromised food—or water intake or defecation, signs of severe inflammation in the vicinity of tumours, or tumour growth which exceeded a volume of 1000 mm^3 or compromised the free movement of the animals. Tumour growth was measured using electronic calipers, and tumour volumes were calculated using the formula Volume=(LxW^2)/2, with L being the longest dimension of the tumour, and W being the width in the perpendicular dimension.
(§2) For tumour establishment, mice were shaved at the flank, and received a subcutaneous injection of 1×10^6 U937 cells, and then closely monitored in order to observe the development of solid tumours. […] All treatments were given as a total of 3 intravenous doses of 5 mg/kg mAb component in the tail veins of the mice, at 4 days intervals. During treatment, the tumours were evaluated every two days, until reaching a point of sacrifice. Mice which fully lost any tumour burden were checked two times a week for a period of 3 months after ending treatment.

Series [2] deals with human glioblastoma explant cells. Kind of series: In vitro cell viability assay on glioblastoma explant cells. The note with it: as FIG. 5 assay; vs aTNP-based control ADCs. How it is done: (§3) Cells tested were seeded at low density (20-25% confluence, generally 5-10×10^3 cells per well) in a 96 well plate in 90 μL of medium, and incubated overnight. […] Cells were incubated for 72 hours, before 20 μL of CellTiter 96 AQueous One Solution Cell Proliferation Assay (MTS, Promega) was added, and incubated for an appropriate time for formation of color (usually 1 hour). The plates were then read at 490 nm, with background subtraction at 630 nm, using a plate reader.
The ADCs 2h9-vc-MMAE and 2h9-vc-MMAF were tested by in vitro cell viability assays, performed as described in Example 1, for their capacity to specifically kill human glioblastoma explant cells. Glioblastoma explant cells are e.g. described in Staberg et al., 2017, Cell Oncol. 40: 21-32.

The target of series [3] is T1, recombinant human (rh) Cathepsin B (Homo sapiens, UniProt P07858).
T1 construct: purchased
Kind of series: Cathepsin B linker cleavage assay (reducing SDS-PAGE). The note with it: incubation with activated rh cathepsin B, 37° C. overnight. Type of series: biochemical. How it is done: Reducing SDS-PAGE was performed by running a 4-12% NuPAGE Bis-Tris SDS-PAGE gel, loading 5 μg of total protein per lane, reduced by boiling for 3 minutes in sample buffer in the presence of 40 mM DTT. The gels were stained using a standard 0.1% coomassie blue stain. For cathepsin B linker cleavage assay, samples were treated with recombinant human (rh) Cathepsin B according to manufacturer's instructions, using 100 ng of activated rhCathepsin B to 20 μg ADC (mAb component), in a 25 mM MES, pH 5.0 buffer, and incubation at 37° C. overnight.

For series [4], the system named is CHO-K1 (receptor-negative cell line). Kind of series: In vitro cytotoxicity of ADCs, cell viability assay (MTS). As to conditions: 72 hours, 4-fold dilutions from 10 μg/mL ADC. Type of series: cell-based. How it is done:
as §3

The subject of series [5] is HT1080 cells. The description is as above. The note with it: 72 hours, 4-fold dilutions from 10 μg/mL ADC, vs aTNP-vc-MMAE. It counts as cell-based. How it is done:
as §3

In series [6] the test system is THP-1 cells. The series is described as above. It counts as cell-based. As to conditions: 72 hours, 4-fold dilutions from 10 μg/mL ADC, vs aTNP-vc-MMAE. How it is done: as §3
The subject of series [7] is KNS42 cells. The description is as above. As to conditions: 72 hours, 4-fold dilutions from 10 μg/mL ADC, vs aTNP-vc-MMAE. It counts as cell-based. The procedure: as §3
For series [8], the system named is U937 cells. The description is as above. Type of series: cell-based. As to conditions: 72 hours, 4-fold dilutions from 10 μg/mL ADC (mAb component), vs aTNP-vc-MMAE. The procedure:
as §3

For series [9], the system named is U937 xenograft tumour. Kind of series: Subcutaneous uPARAP-positive U937 xenograft tumour model, treatment by s.c. injection. It counts as in vivo, CB17 SCID mice. The procedure: as §1
as §2, with “4 subcutaneous” for “3 intravenous”, “3” for “5”, “tumour area,” for “tail veins of the mice,”, “intervals. Injections were performed under brief isoflurane anesthesia to avoid risks for the animal handler.” for “intervals.”

The test system of series [10] is HT1080 cells. Kind of series: Cell cycle distribution analysis. It counts as cell-based. As to conditions: 3-day incubation, 1 μg/mL ADC. How it is done: (§4) Cell cycle analysis was performed using a Nucleocounter NC-3000 system (ChemoMetec Denmark), using the manufacturers standard protocol for analyzing the cell cycle distribution of a population of cells, based on the DNA content of each cell. The percentage of cells in Sub-G1, G1, S, or G2/M-phases of the cell cycle was established from histogram analysis using the NucleoView NC-3000 software.

For series [11], the system named is THP-1 cells. Kind of series: Cell cycle distribution analysis. It counts as cell-based. As to conditions: 3-day incubation, 1 μg/mL ADC. How it is done:
as §4

In series [12] the test system is KNS42 cells. Nature of the series: Cell cycle distribution analysis. Type of series: cell-based. As to conditions: 3-day incubation, 1 μg/mL ADC. The procedure:
as §4

The subject of series [13] is U937 cells. Kind of series: Cell cycle distribution analysis. Type of series: cell-based. As to conditions: 3-day incubation, 1 μg/mL ADC. The procedure: as §4
For series [14], the target named is T2, soluble truncated uPARAP protein containing the first 3 N-terminal domains of human uPARAP (Homo sapiens, UniProt Q9UBG0).
T2 construct: a soluble truncated uPARAP protein containing the first 3 N-terminal domains of human uPARAP
T2 sequence (Q9UBG0 31-365): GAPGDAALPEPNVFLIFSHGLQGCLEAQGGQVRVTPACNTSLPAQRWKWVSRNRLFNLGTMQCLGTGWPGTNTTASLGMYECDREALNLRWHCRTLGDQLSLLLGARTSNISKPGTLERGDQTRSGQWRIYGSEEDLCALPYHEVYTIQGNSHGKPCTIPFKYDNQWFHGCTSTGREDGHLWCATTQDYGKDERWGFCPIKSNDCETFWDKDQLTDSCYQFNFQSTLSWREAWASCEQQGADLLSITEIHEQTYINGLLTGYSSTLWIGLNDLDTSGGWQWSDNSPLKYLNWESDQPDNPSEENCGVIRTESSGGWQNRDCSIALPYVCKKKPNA
Kind of series: ELISA analysis of uPARAP-binding of mAbs. As to conditions: after reduction step of conjugation, or in ADC form. How it is done: Untreated mAbs (2h9 or aTNP), same mAbs subjected to the reduction procedure of conjugation (see above), or ADCs 2h9-vc-MMAE or aTNP-vc-MMAE, were then employed as a primary antibody, followed by a HRP-conjugated rabbit anti-mouse Ig secondary antibody. Finally an o-phenylenediamine dihydrochloride-containing substrate solution was added, and the color reaction was stopped by adding 1M H2SO4. Plates were read at 492 nm using a plate reader.

[15] abbreviates: s.c., 3 mg/kg, 4 doses, of the 10 mice treated.

B1: 2h9-vc-MMAE: uPARAP-directed ADC: mAb 2h9 conjugated to MC-VC-PAB-MMAE (Vedotin) linker-toxin (conjugate)
light: DIQMTQSPASQSASLGESVTITCLASQTIGTWLAWYQQKPGKSPQLLIYAATTLTDGVPSRFSGAGSGTKFSLKISSLQAEDFASYFCQEFFSTPFTFGSGTKLELKRADAAPTVSIFPPSSEQLTSGGASVVCFLNNFYPKDINVKWKIDGGERQNGVLNSWTDQDSKDSTYSMSSTLTLTKDEYERHNSYTCEATHKTSTSPIVKSFNRNEC
heavy: QVQLQQPGTELVRPGLSVKLSCKASGYTFTSYWMNWVKQRPGQGLEWIGMIHPSNDEKRINQKFKDKATLTVDKFSSTVYMQVSSPTSEDSAVYYCARGGGDYVGDYALDFWGQGTSVTVSSAKTTPPSVYPLAPGSAAQTNSMVTLGCLVKGYFPEPVTVTWNSGSLSSGVHTFPAVLQSDLYTLSSSVTVPSSTWPSETVTCNVAHPASSTKVDKKIVPRDCGCKPCICTVPEVSSVFIFPPKPKDVLTITLTPKVTCVVVDISKDDPEVQFSWFVDDVEVHTAQTQPREEQFNSTFRSVSELPIMHQDWLNGKEFKCRVNSAAFPAPIEKTISKTKGRPKAPQVYTIPPPKEQMAKDKVSLTCMITDFFPEDITVEWQWNGQPAENYKNTQPIMDTDGSYFIYSKLNVQKSNWEAGNTFTCSVLHEGLHNHHTEKSLSHSPGK
B1: in the series with U937 xenograft tumour [1] (i.v. tail vein, 5 mg/kg mAb component, 3 doses every 4 days, all 10 mice), the Tumour burden entry was “complete abrogation of the tumour burden”. For the same molecule, the Permanent cure rate is listed as 100% in the series with U937 xenograft tumour [1] (i.v., 5 mg/kg mAb component, 3 doses every 4 days, N=10) and 50% in the series with U937 xenograft tumour [9] (s.c., 3 mg/kg mAb component, 4 doses every 4 days, N=10). Further, in the series with U937 xenograft tumour [1] (regular inspection of the treated mice, antibody cross-reactive with murine uPARAP), the “Adverse / detrimental effects on treated mice” value is on record as “without any evident adverse effects; also recorded: no signs of detrimental effects were seen”. The “Cell viability / sensitivity of glioblastoma explant cells” value in series [2] was “very strong and specific sensitivity; also recorded: high degree of specific sensitivity”. In addition, the “Linker cleavage by cathepsin B (gel mobility)” value in series [3] is “reverts ADC gel mobility back to that of unmodified targeting antibody”. Moreover, the Overall cell viability result in series [4] is “remains unaffected”; with HT1080 cells [5], “specific reduction in overall viability”; in the series on THP-1 cells [6], “specific reduction in overall viability”; in the series with KNS42 cells [7] it was “specific reduction in overall viability”; in the series with U937 cells [8], “most sensitive cell line tested; also recorded: specific reduction in overall cell viability”. Moreover, the Tumour growth entry in the series with U937 xenograft tumour [9] (s.c. near the tumour, 3 mg/kg mAb component, 4 doses every 4 days) is reported as “drastic decrease in tumour growth”. Moreover, in the series on U937 xenograft tumour [9] (setting [15]), the “Mice free from tumour growth for a period of 90 days” value was found to be 5 mice. The “Mice with almost immediate relapse of tumour growth following treatment” value in the series on U937 xenograft tumour [9] (setting [15]) is 5 mice. In addition, the Cell cycle distribution result is “shift in cell cycle distribution towards the Sub-G1 and G2/M phases” in the series on HT1080 cells [10]; “shift in cell cycle distribution towards the Sub-G1 and G2/M phases” in the series on THP-1 cells [11]; “shift in cell cycle distribution towards the Sub-G1 and G2/M phases” in the series on KNS42 cells [12]; “shift in cell cycle distribution towards the Sub-G1 and G2/M phases” in the series with U937 cells [13]. Further, the “Affinity towards uPARAP following conjugation procedure” value in series [14] is reported as “retained affinity”.

Values taken from US11819552B2, “Antibody-drug conjugates targeting uPARAP” (RIGSHOSPITALET, priority 2016, dated 2023).
